Experimental data: the supplement of paper PMC10724198
± gives the standard deviation of the averaged measurements.

Experiments:
Saccharomyces cerevisiae [1] = assay: protein stability index of tFT-peptide fusion (C-terminal peptide) (PSI (0-1 scale)); higher = more stable (slower turnover)
Method: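 MPS profiling in S. cerevisiae of the tFT-X12 degron library: putative degron peptides plus stable controls, 12 aa, fused to the C-terminus of a sfGFP-mCherry timer. Cells are FACS-sorted into 8 mCherry/sfGFP bins and deep-sequenced. PSI runs from 0 (unstable) to 1 (stable). Backgrounds are wild type, das1Δ and doa10Δ at 30 °C, and wild type, das1Δ, cdc34-1 and cdc53-1 at 37 °C; 2-3 technical replicates each.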

Saccharomyces cerevisiae [2] = assay: as above; settings: genetic background: wild type; temperature: 30 C
[3] = genetic background: cdc34-1, temperature: 37 C
[4] = genetic background: cdc53-1, temperature: 37 C
[5] = genetic background: das1 deletion, temperature: 30 C
[6] = genetic background: das1 deletion, temperature: 37 C
[7] = genetic background: doa10 deletion, temperature: 30 C
[8] = genetic background: wild type, temperature: 30 C
[9] = genetic background: wild type, temperature: 37 C
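Note: PSI is a weighted mean of sequencing reads over stability bins, variants kept only with over 10 reads, mCherry proximal and sfGFP distal, peptide attached via GGGS linker.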

Sequence	protein stability index (Saccharomyces cerevisiae [1]; [3])	protein stability index (Saccharomyces cerevisiae [1]; [4])	protein stability index (Saccharomyces cerevisiae [1]; [5])	protein stability index (Saccharomyces cerevisiae [1]; [6])	protein stability index (Saccharomyces cerevisiae [1]; [7])	protein stability index (Saccharomyces cerevisiae [1]; [8])	protein stability index (Saccharomyces cerevisiae [1]; [9])	protein stability index (Saccharomyces cerevisiae [2])
LLGSRFVLIRSL	0.488 ± 0.028	0.571 ± 0.044	0.462 ± 0.026	0.621 ± 0.012	0.114 ± 0.014	0.121 ± 0.01	0.161 ± 0.009	0.185 ± 0.017
RFPFFLPFIAFL	0.491 ± 0.012	0.539 ± 0.019	0.55 ± 0.0097	0.637 ± 0.0021	0.306 ± 0.013	0.254 ± 0.032	0.39 ± 0.0084	0.37 ± 0.036
FFLDVMFLLFFF	0.501 ± 0.062		0.399 ± 0.036	0.524 ± 0.008	0.44 ± 0.022	0.399 ± 0.021	0.513 ± 0.0088	0.445 ± 0.037
CLWNFWVRFLLL	0.298 ± 0.042	0.406 ± 0.023	0.399 ± 0.014	0.509 ± 0.015	0.164 ± 0.0046	0.139 ± 0.01	0.135 ± 0.0083	0.175 ± 0.022
PPVLAPHLCFPP	0.685 ± 0.008	0.736 ± 0.0089	0.657 ± 0.0043	0.739 ± 0.015	0.673 ± 0.028	0.675 ± 0.019	0.713 ± 0.019	0.724 ± 0.018
SVFGVRARFGSV	0.766 ± 0.0082	0.803 ± 0.013	0.709 ± 0.018	0.781 ± 0.027	0.707 ± 0.046	0.724 ± 0.018	0.7738 ± 0.0016	0.756 ± 0.014
VYEVELSVRVTV	0.552 ± 0.03	0.56 ± 0.013	0.435 ± 0.026	0.548 ± 0.0089	0.404 ± 0.0053	0.447 ± 0.035	0.51 ± 0.0073	0.522 ± 0.063
RTRVRKTRIRTC	0.624 ± 0.039	0.6934 ± 0.0022	0.637 ± 0.018	0.724 ± 0.015	0.234 ± 0.02	0.277 ± 0.0072	0.517 ± 0.011	0.392 ± 0.021
PPVAYVCHLYVT	0.589 ± 0.058	0.614 ± 0.029	0.5 ± 0.017	0.6058 ± 0.0045	0.309 ± 0.031	0.335 ± 0.028	0.503 ± 0.013	0.428 ± 0.0053
IVRDTECGIFYR	0.689 ± 0.05	0.75 ± 0.021	0.642 ± 0.016	0.735 ± 0.023	0.6512 ± 0.0058	0.6662 ± 0.006	0.723 ± 0.021	0.731 ± 0.013
GLCGVVVGCWVR	0.395 ± 0.017	0.417 ± 0.017	0.286 ± 0.027	0.484 ± 0.016	0.293 ± 0.011	0.283 ± 0.021	0.4657 ± 0.0044	0.397 ± 0.014
AGCFFVVLCGFF	0.436 ± 0.018	0.503 ± 0.04	0.334 ± 0.035	0.495 ± 0.016	0.311 ± 0.0056	0.326 ± 0.0067	0.4673 ± 0.0025	0.431 ± 0.0071
VLLLRRPLLVFS	0.0781 ± 0.025	0.105 ± 0.037	0.149 ± 0.028	0.229 ± 0.014	0.128 ± 0.017	0.148 ± 0.024	0.187 ± 0.0061	0.244 ± 0.021
VPSPWLIRSLMS	0.648 ± 0.024	0.687 ± 0.019	0.643 ± 0.037	0.716 ± 0.026	0.224 ± 0.0045	0.278 ± 0.026	0.518 ± 0.039	0.409 ± 0.023
GEVLWAVLLVSC	0.1782 ± 0.00065	0.208 ± 0.016	0.215 ± 0.029	0.343 ± 0.0077	0.164 ± 0.023	0.198 ± 0.038	0.3 ± 0.0077	0.299 ± 0.0047
RSFGGRPWVLFL	0.623 ± 0.037	0.733 ± 0.023	0.638 ± 0.018	0.7549 ± 0.0052	0.106 ± 0.014	0.0971 ± 0.025	0.255 ± 0.019	0.192 ± 0.034
CLVFGFLFFIVI	0.35 ± 0.028	0.411 ± 0.061	0.338 ± 0.026	0.449 ± 0.016	0.435 ± 0.016	0.35 ± 0.029	0.447 ± 0.037	0.404 ± 0.021
YKLRAVFVCSVT	0.575 ± 0.06	0.6329 ± 0.0043	0.507 ± 0.021	0.6427 ± 0.0023	0.311 ± 0.018	0.34 ± 0.025	0.445 ± 0.028	0.392 ± 0.037
LLQCRTGLASGR	0.685 ± 0.032	0.732 ± 0.043	0.649 ± 0.013	0.748 ± 0.0087	0.652 ± 0.029	0.656 ± 0.043	0.718 ± 0.043	0.518 ± 0.13
FLYFLLQFLCSG	0.517 ± 0.04	0.544 ± 0.0046	0.418 ± 0.034	0.597 ± 0.046	0.406 ± 0.0045	0.421 ± 0.029	0.579 ± 0.034	0.516 ± 0.034

Sequence	protein stability index (Saccharomyces cerevisiae [1]; [3])	protein stability index (Saccharomyces cerevisiae [1]; [4])	protein stability index (Saccharomyces cerevisiae [1]; [5])	protein stability index (Saccharomyces cerevisiae [1]; [6])	protein stability index (Saccharomyces cerevisiae [1]; [7])	protein stability index (Saccharomyces cerevisiae [1]; [8])	protein stability index (Saccharomyces cerevisiae [1]; [9])	protein stability index (Saccharomyces cerevisiae [2])
FLFWVLLVGCSF	0.244 ± 0.0058	0.299 ± 0.012	0.245 ± 0.035	0.3748 ± 0.0029	0.206 ± 0.015	0.206 ± 0.021	0.334 ± 0.013	0.304 ± 0.028
RFCRVERAILLR	0.334 ± 0.0068	0.251 ± 0.0061	0.33 ± 0.049	0.4436 ± 0.0035	0.622 ± 0.039	0.351 ± 0.026	0.41 ± 0.0053	0.481 ± 0.015
SRICRTIIQLKQ	0.561 ± 0.025	0.681 ± 0.013	0.626 ± 0.029	0.689 ± 0.033	0.107 ± 0.0018	0.121 ± 0.022	0.266 ± 0.004	0.168 ± 0.0027
WFAHGLRHFRIL	0.653 ± 0.081	0.76058 ± 0.00075	0.661 ± 0.0098	0.742 ± 0.027	0.273 ± 0.016	0.299 ± 0.012	0.532 ± 0.034	0.375 ± 0.068
GFFCFLYFVVMF	0.148 ± 0.0033	0.1695 ± 0.0013	0.18 ± 0.026	0.296 ± 0.013	0.2127 ± 0.0014	0.187 ± 0.018	0.277 ± 0.0028	0.226 ± 0.021
LCVWRRAIVWVG	0.363 ± 0.038	0.4573 ± 0.0015	0.352 ± 0.025	0.512 ± 0.007	0.0712 ± 0.011	0.0818 ± 0.021	0.0815 ± 0.0071	0.137 ± 0.039
FCSVFAHFLLCH	0.382 ± 0.011	0.443 ± 0.0052	0.4 ± 0.013	0.49 ± 0.0094	0.193 ± 0.005	0.207 ± 0.013	0.271 ± 0.0043	0.264 ± 0.0032
WQGWFLSLCIWV	0.2872 ± 0.0019	0.341 ± 0.0047	0.3 ± 0.031	0.404 ± 0.0047	0.317 ± 0.0065	0.296 ± 0.024	0.392 ± 0.025	0.348 ± 0.014
ALHGTVRNWQRQ	0.673 ± 0.066	0.701 ± 0.059	0.63 ± 0.035	0.696 ± 0.011	0.191 ± 0.016	0.245 ± 0.0071	0.535 ± 0.04	0.39 ± 0.015
WSHVPLAPLSCF	0.43 ± 0.017	0.442 ± 0.0048	0.337 ± 0.023	0.477 ± 0.0073	0.287 ± 0.0032	0.315 ± 0.023	0.42596 ± 0.00033	0.4567 ± 0.0039
SLAPPPPLLILR	0.403 ± 0.049	0.325 ± 0.015	0.345 ± 0.021	0.479 ± 0.049	0.605 ± 0.0019	0.348 ± 0.025	0.4471 ± 0.0029	0.335 ± 0.022
LLCGVLFFFWVV	0.38 ± 0.018	0.496 ± 0.011	0.383 ± 0.03	0.525 ± 0.017	0.311 ± 0.0096	0.32 ± 0.021	0.451 ± 0.0076	0.42 ± 0.068
LFGFYFVRCLVW	0.113 ± 0.0026	0.168 ± 0.022	0.178 ± 0.022	0.263 ± 0.012	0.16 ± 0.017	0.159 ± 0.0095	0.23 ± 0.0099	0.226 ± 0.0096
ETCFSFVCSVQC	0.328 ± 0.013	0.325 ± 0.025	0.284 ± 0.036	0.4019 ± 0.0023	0.221 ± 0.012	0.281 ± 0.02	0.385 ± 0.0093	0.398 ± 0.0044
EGLCCGAYFLVF	0.695 ± 0.038	0.7228 ± 0.00076	0.584 ± 0.034	0.709 ± 0.0098	0.558 ± 0.014	0.587 ± 0.035	0.6751 ± 0.0057	0.571 ± 0.14
SLASPPPLLILR	0.372 ± 0.057	0.342 ± 0.023	0.326 ± 0.032	0.436 ± 0.038	0.60698 ± 1.5e-05	0.354 ± 0.0056	0.434 ± 0.01	0.346 ± 0.023
VAWFFFAYAFFM	0.361 ± 0.058	0.451 ± 0.015	0.321 ± 0.043	0.488 ± 0.015	0.251 ± 0.0032	0.266 ± 0.026	0.407 ± 0.0093	0.321 ± 0.0039
LPCPPSPASLPR	0.676 ± 0.0092	0.7154 ± 0.0027	0.447 ± 0.013	0.634 ± 0.0069	0.437 ± 0.013	0.448 ± 0.0041	0.59 ± 0.019	0.498 ± 0.0076
IVVWCGIRYSIR	0.328 ± 0.005	0.415 ± 0.055	0.263 ± 0.035	0.484 ± 0.0071	0.233 ± 0.013	0.262 ± 0.029	0.459 ± 0.0096	0.366 ± 0.032
